According to US20260242478A1 (published 2026):
Where no end group is shown, it is not given here.

B1: Phage-945 (peptide)
peptide: YCDGHSEAFMQKCL
B2: Phage-939 (peptide)
peptide: YCAGHAPEYMSKCL
B3: Phage-956 (peptide)
peptide: YCAGHSPQYMEKCL
B4: Phage-936 (peptide)
peptide: YCDGHDVEYMSKCL
B5: Phage-925 (Peptide-87 library clone, SEQ ID NO: 1241) (peptide)
peptide: YCAGHAAEYMTKCL
modifications: cysteine pairing not given here; also: displayed fused to phage pIII protein, fusion end and linker not given here
notes: Tested as clonal phage supernatant; not shown: fused to the pIII filament protein of the bacteriophage
B6: Phage-937 (peptide)
peptide: YCAGHSLEYMQKCL
B7: Phage-929 (Peptide-87 library clone, SEQ ID NO: 1245) (peptide)
peptide: YCDGHGPQYIQKCL
modifications: cysteine pairing not given here; also: displayed fused to phage pIII protein, fusion end and linker not given here
notes: as for B5
B8: Phage-933 (peptide)
peptide: YCAGHVAEYMAKCL
B9: Phage-924 (Peptide-87 library clone, SEQ ID NO: 1240) (peptide)
peptide: YCEGHSLMYMWKCL
modifications: cysteine pairing not given here; also: displayed fused to phage pIII protein, fusion end and linker not given here
notes: as for B5
B10: Phage-952 (peptide)
peptide: YCDGHELKYMLKCL
B11: Phage-922 (Peptide-87 library clone, SEQ ID NO: 1238) (peptide)
peptide: YCDGHSLLYLSKCL
modifications: cysteine pairing not given here; also: fused to phage pIII
notes: as for B5
B12: Phage-941 (peptide)
peptide: YCDGHLDVYRAKCL
B13: Phage-935 (peptide)
peptide: YCEGHMWEYMAKCL
B14: Phage-949 (peptide)
peptide: YCEGHVTEYMQKCL
B15: Phage-942 (peptide)
peptide: YCEGHLEQYMQKCL
B16: Phage-948 (peptide)
peptide: YCDGHLSEYMSKCL
B17: Phage-955 (peptide)
peptide: YCDGHSPEYMLKCL
B18: Phage-932 (peptide)
peptide: YCEGHTAEHMQKCL
B19: Phage-920 (Peptide-87 library clone, SEQ ID NO: 1236) (peptide)
peptide: YCDGHDVEYMAKCL
modifications: cysteine pairing not given here; also: fused to phage pIII
notes: as for B5
B20: Phage-931 (peptide)
peptide: YCEGHSAQYMHKCL
B21: Phage-953 (peptide)
peptide: YCDGHLLEYKAKCL
B22: Phage-927 (Peptide-87 library clone, SEQ ID NO: 1243) (peptide)
peptide: YCDGHAQEYRLKCL
modifications: cysteine pairing not given here; also: displayed fused to phage pIII protein, fusion end and linker not given here
notes: as for B5
B23: Phage-928 (Peptide-87 library clone, SEQ ID NO: 1244) (peptide)
peptide: YCDGHSAEYLLKCL
modifications: cysteine pairing not given here; also: displayed fused to phage pIII protein, fusion end and linker not given here
notes: as for B5
B24: Phage-921 (Peptide-87 library clone, SEQ ID NO: 1237) (peptide)
peptide: YCDGHSEVYMAKCL
modifications: cysteine pairing not given here; also: fused to phage pIII
notes: as for B5
B25: Phage-923 (Peptide-87 library clone, SEQ ID NO: 1239) (peptide)
peptide: YCEGHLAVYMEKCL
modifications: cysteine pairing not given here; also: displayed fused to phage pIII protein, fusion end and linker not given here
notes: as for B5
B26: Phage-938 (peptide)
peptide: YCEGHDLIYMWKCL
B27: Phage-934 (peptide)
peptide: YCDGHATEYMQKCL
B28: Phage-944 (peptide)
peptide: YCDGHSLEYIGKCL
B29: Phage-950 (peptide)
peptide: YCDGHAQEYMDKCL
B30: Phage-940 (peptide)
peptide: YCEGHSSEYMWKCL
B31: Phage-943 (peptide)
peptide: YCEGHSWVYMAKCL
B32: Phage-951 (peptide)
peptide: YCEGHAPQYIMKCL
B33: Phage-946 (peptide)
peptide: YCAGHLPEYMGKCL
B34: Phage-947 (peptide)
peptide: YCAGHLAIYMSKCL
B35: Phage-926 (Peptide-87 library clone, SEQ ID NO: 1242) (peptide)
peptide: YCDGHSVEYMEKCL
modifications: cysteine pairing not given here; also: displayed fused to phage pIII protein, fusion end and linker not given here
notes: as for B5
B36: Phage-954 (peptide)
peptide: YCEGHLEEYMAKCL
B37: Phage-930 (Peptide-87 library clone, SEQ ID NO: 1246) (peptide)
peptide: YCEGHIAEYMQKCL
modifications: cysteine pairing not given here; also: displayed fused to phage pIII protein, fusion end and linker not given here
notes: as for B5

Columns and labels:
[1] = biological target: T1, Anti-CD28 Fab (SEQ ID NOs: 696, 697); assay: phage ELISA; biotinylated anti-CD28 Fab on neutravidin plate, clonal phage supernatant, anti-M13 HRP
T1 construct: Biotinylated and captured on neutravidin coated plates in the phage ELISA
T1 sequence (VH, as listed by the source, chain 1 of 2): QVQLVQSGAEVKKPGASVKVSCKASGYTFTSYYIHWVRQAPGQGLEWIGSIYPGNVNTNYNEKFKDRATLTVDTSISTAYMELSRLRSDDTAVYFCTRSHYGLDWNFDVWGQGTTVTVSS
T1 sequence (VL, as listed by the source, chain 2 of 2): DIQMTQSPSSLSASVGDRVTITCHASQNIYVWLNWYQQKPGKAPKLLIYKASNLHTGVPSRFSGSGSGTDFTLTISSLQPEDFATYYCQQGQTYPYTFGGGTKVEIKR

[2] = biological target: T1, Anti-CD28 Fab (SEQ ID NOs: 696, 697); assay: phage ELISA; captured anti-CD28 Fab pre-incubated with CD28 antigen as competitor, anti-M13 HRP;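 also: crude clonal phage supernatants added without washing after CD28 pre-incubation, bound phage detected with HRP anti-M13 antibody, reference wells got blocking buffer lacking CD28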
Procedure: (§1) After panning, phage infected bacteria were plated out and colonies picked into 96 well blocks. Clonal phage was then amplified and separated from bacterial cells via centrifugation.
(§2) Clonal phage were harvested as crude supematants and screened via standard ELISAs. […] Prior to the addition of clonal phage, wells were incubated with blocking buffer and CD28 antigen or blocking buffer alone. Without washing or aspirating, clonal phage supematants were then added to the wells and incubated for a short time. Wells were then washed followed by detection of bound phage using a horse radish conjugated anti-M13 antibody. Clonal phage of interest were then sent for sequence analysis.

[3] = biological target: T2, Anti-CD28 Fab (SEQ ID NOs: 696, 697); assay: phage ELISA on captured anti-CD28 Fab; competitor: CD28 antigen pre-incubated on the Fab
T2 construct: In the phage ELISA the Fab was biotinylated and captured on neutravidin coated plates
T2 sequence (VH, as listed by the source, chain 1 of 2): as the sequence (VH, as listed by the source, chain 1 of 2) above
T2 sequence (VL, as listed by the source, chain 2 of 2): as the sequence (VL, as listed by the source, chain 2 of 2) above
Procedure: as §1, §2

[4] = biological target: T2, Anti-CD28 Fab (SEQ ID NOs: 696, 697); assay: phage ELISA; clonal phage supernatant on biotinylated anti-CD28 Fab captured on neutravidin, anti-M13 HRP detection
Procedure: as §1, §2

[5] = biological target: T3, Anti-CD28 Fab (SEQ ID NOs: 696, 697); assay: phage binding ELISA; Fab-coated wells pre-incubated with CD28 antigen as competitor, anti-M13 HRP detection;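 also: crude clonal phage supernatants from panned colonies added to wells after blocking buffer plus CD28 treatment, bound phage measured after a brief incubation and washing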
T3 construct: In the phage ELISA the Fab was biotinylated and captured on neutravidin coated plates
T3 sequence (VH, as listed by the source, chain 1 of 2): as the sequence (VH, as listed by the source, chain 1 of 2) above
T3 sequence (VL, as listed by the source, chain 2 of 2): as the sequence (VL, as listed by the source, chain 2 of 2) above
Procedure: as §1, §2

[6] = biological target: T3, Anti-CD28 Fab (SEQ ID NOs: 696, 697); assay: phage binding ELISA; biotinylated anti-CD28 Fab on neutravidin plate, clonal phage supernatant, anti-M13 HRP detection

| Binder | Phage binding ELISA, Anti-CD28 Fab signal [1] | Phage binding ELISA, Anti-CD28 Fab signal in the presence of CD28 [2] | Anti-CD28 Fab signal in the presence of CD28 (phage binding ELISA) [3] | Anti-CD28 Fab signal (phage binding ELISA) [4] | other results |
| --- | --- | --- | --- | --- | --- |
| B1 | 1.63 | 0.07 |  |  |  |
| B2 |  |  | 0.05 | 1.63 |  |
| B3 | 1.61 | 0.06 |  |  |  |
| B4 |  |  | 0.05 | 1.64 |  |
| B5 |  |  |  |  | Anti-CD28 Fab signal in the presence of CD28 (phage binding ELISA) [5]: 0.07; Anti-CD28 Fab signal (phage binding ELISA) [6]: 1.65 |
| B6 |  |  | 0.07 | 1.63 |  |
| B7 |  |  |  |  | Anti-CD28 Fab signal in the presence of CD28 (phage binding ELISA) [5]: 0.07; Anti-CD28 Fab signal (phage binding ELISA) [6]: 1.64 |
| B8 |  |  | 0.06 | 1.64 |  |
| B9 |  |  |  |  | Anti-CD28 Fab signal in the presence of CD28 (phage binding ELISA) [5]: 0.08; Anti-CD28 Fab signal (phage binding ELISA) [6]: 1.65 |
| B10 | 1.62 | 0.08 |  |  |  |
| B11 |  |  |  |  | Anti-CD28 Fab signal in the presence of CD28 (phage binding ELISA) [5]: 0.07; Anti-CD28 Fab signal (phage binding ELISA) [6]: 1.65 |
| B12 |  |  | 0.09 | 1.63 |  |
| B13 |  |  | 0.13 | 1.64 |  |
| B14 | 1.62 | 0.08 |  |  |  |
| B15 |  |  | 0.06 | 1.63 |  |
| B16 | 1.62 | 0.06 |  |  |  |
| B17 | 1.61 | 0.07 |  |  |  |
| B18 |  |  | 0.05 | 1.64 |  |
| B19 |  |  |  |  | Anti-CD28 Fab signal in the presence of CD28 (phage binding ELISA) [5]: 0.07; Anti-CD28 Fab signal (phage binding ELISA) [6]: 1.66 |

| Binder | Phage binding ELISA, Anti-CD28 Fab signal [1] | Phage binding ELISA, Anti-CD28 Fab signal in the presence of CD28 [2] | Anti-CD28 Fab signal in the presence of CD28 (phage binding ELISA) [3] | Anti-CD28 Fab signal (phage binding ELISA) [4] | other results |
| --- | --- | --- | --- | --- | --- |
| B20 |  |  | 0.06 | 1.64 |  |
| B21 | 1.62 | 0.07 |  |  |  |
| B22 |  |  |  |  | Anti-CD28 Fab signal in the presence of CD28 (phage binding ELISA) [5]: 0.07; Anti-CD28 Fab signal (phage binding ELISA) [6]: 1.65 |
| B23 |  |  |  |  | Anti-CD28 Fab signal in the presence of CD28 (phage binding ELISA) [5]: 0.07; Anti-CD28 Fab signal (phage binding ELISA) [6]: 1.65 |
| B24 |  |  |  |  | Anti-CD28 Fab signal in the presence of CD28 (phage binding ELISA) [5]: 0.06; Anti-CD28 Fab signal (phage binding ELISA) [6]: 1.66 |
| B25 |  |  |  |  | Anti-CD28 Fab signal in the presence of CD28 (phage binding ELISA) [5]: 0.12; Anti-CD28 Fab signal (phage binding ELISA) [6]: 1.65 |
| B26 |  |  | 0.06 | 1.63 |  |
| B27 |  |  | 0.1 | 1.64 |  |
| B28 | 1.63 | 0.06 |  |  |  |
| B29 | 1.62 | 0.08 |  |  |  |
| B30 |  |  | 0.09 | 1.63 |  |
| B31 |  |  | 0.07 | 1.63 |  |
| B32 | 1.62 | 0.06 |  |  |  |
| B33 | 1.63 | 0.07 |  |  |  |
| B34 | 1.63 | 0.08 |  |  |  |
| B35 |  |  |  |  | Anti-CD28 Fab signal in the presence of CD28 (phage binding ELISA) [5]: 0.09; Anti-CD28 Fab signal (phage binding ELISA) [6]: 1.65 |
| B36 | 1.62 | 0.07 |  |  |  |
| B37 |  |  |  |  | Anti-CD28 Fab signal in the presence of CD28 (phage binding ELISA) [5]: 0.13; Anti-CD28 Fab signal (phage binding ELISA) [6]: 1.64 |
